The source of these data is patent publication US20250326818A1 (UNIVERSIT T BASEL, published 2025).

For the assay, the target named is T1, CD123 ECD wt (human, UniProt P26951 19-305).
T1 construct: Recombinant extracellular domain; Biotinylated when captured for the hIL3 assay; also called CD123_WT; recombinant wildtype CD123
T1 sequence: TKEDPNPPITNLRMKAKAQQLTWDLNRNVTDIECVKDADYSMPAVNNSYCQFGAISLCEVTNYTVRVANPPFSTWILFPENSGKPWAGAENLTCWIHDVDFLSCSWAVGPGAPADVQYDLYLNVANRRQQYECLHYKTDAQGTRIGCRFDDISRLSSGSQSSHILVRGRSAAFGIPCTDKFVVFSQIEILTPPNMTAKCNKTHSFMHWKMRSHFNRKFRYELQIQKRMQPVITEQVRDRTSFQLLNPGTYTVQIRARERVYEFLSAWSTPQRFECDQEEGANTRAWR
The assay can be described thus: BLI (Octet), biotinylated CD123 ECD captured on streptavidin tips, hIL3 as analyte, level at 250 s normalised to loading. How it is done:
Binding of hIL3 (SinoBiological, PN: 11858-H08H) (analyte) to CD123 ECD wt. and variants (ligands) was performed using Streptavidin capture biosensor (SA) (Sartorius, PN: 18-5019). CD123 ECD wt. and variants were biotinylated using Biotinylation kit Type B (Abeam, PN: ab201796) following manufacturer instructions. Biotinylated CD123 ECD wt. and variants (ligands) were captured on SA tips for 1000 s to achieve a nm shift of 1.5 to 2 nm. Analyte hIL3 was titrated at 7 concentrations from 500 to 7.8 nM. Association to analyte was monitored for 300 s and dissociation for 120 s. Buffer only well was used as reference. No regeneration was performed, and a new set of tips was used for each biotinylated captured ligand. Data were analyzed using the Octet Data Analysis software HT 12.0. Due to the fast on/off nature of the interaction data were analyzed using Steady state analysis. Qualitative representation in FIG. 11 binding level were taken at 250 s association for all concentrations.
In general terms: In BLI a coated tip is dipped into the sample, and binding shifts an interference pattern.

B1: hIL3 (ligand, human, UniProt P08700 20-152, looked up)
chain: APMTQTTPLKTSWVNCSNMIDEIITHLKQPPLPLLDFNNLNGEDQDILMENNLRRPNLEAFNRAVKSLQNASAIESILKNLLPCLPLATAAPTRHPIHIKDGDWNEFRRKLTFYLKTLENAQAQQTTLSLAIF
notes: also called Interleukin-3
Take B1: the binding result was “binds”.
